Earlier results as cited in PMC8745658.
pKd: −log10 of the molar value.

Target: Cytochrome b5 soluble isoform (Homo sapiens) (UniProt P00167)
Assay: flavin autofluorescence

Sequence of UniProt P00167 (P00167 2-98): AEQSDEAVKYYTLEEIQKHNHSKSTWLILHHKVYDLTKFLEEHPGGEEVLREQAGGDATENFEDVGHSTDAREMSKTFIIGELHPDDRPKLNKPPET

- pKd: 6.30
Substance: Cytochrome b5 reductase soluble isoform (from UniProt P00387)
